Laboratory results as given in paper PMC10397247.
Blank lines part the entries; values can stand above or below the binder they belong to.

What was measured:
O9-bH = target: T1, O9-bH; test: two-hybrid library CCNG1; conditions: mean of both orientations;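 also: natural log of median RNA to DNA barcode read ratio; higher means stronger binding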
T1 chain: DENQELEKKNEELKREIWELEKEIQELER

4H575-bN = target: T2, 4H575-bN; test: two-hybrid library CCNG1;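 also: natural log of median RNA to DNA barcode read ratio; higher means stronger binding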
T2 chain: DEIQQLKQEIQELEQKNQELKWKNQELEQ

4H953-bN = target: T3, 4H953-bN; test: two-hybrid library CCNG1;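 also: natural log of median RNA to DNA barcode read ratio; higher means stronger binding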
T3 chain: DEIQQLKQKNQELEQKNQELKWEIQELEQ

4H855-bN = target: T4, 4H855-bN; test: two-hybrid library CCNG1;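 also: natural log of median RNA to DNA barcode read ratio; higher means stronger binding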
T4 chain: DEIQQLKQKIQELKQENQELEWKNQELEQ

4H683-bN = target: T5, 4H683-bN; test: two-hybrid library CCNG1;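 also: natural log of median RNA to DNA barcode read ratio; higher means stronger binding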
T5 chain: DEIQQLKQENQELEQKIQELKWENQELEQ

4H754-bN = target: T6, 4H754-bN; test: two-hybrid library CCNG1;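 also: natural log of median RNA to DNA barcode read ratio; higher means stronger binding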
T6 chain: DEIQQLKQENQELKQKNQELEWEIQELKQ

4H968-bN = target: T7, 4H968-bN; test: two-hybrid library CCNG1
T7 chain: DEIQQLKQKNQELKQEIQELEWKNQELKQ

4H457-bN = target: T8, 4H457-bN; test: two-hybrid library CCNG1
T8 chain: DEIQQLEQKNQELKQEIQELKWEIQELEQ

4H780-bN = target: T9, 4H780-bN; test: two-hybrid library CCNG1
T9 chain: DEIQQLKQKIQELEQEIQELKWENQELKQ

4H797-bN = target: T10, 4H797-bN; test: two-hybrid library CCNG1
T10 chain: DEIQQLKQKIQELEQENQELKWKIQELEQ

4H918-bN = target: T11, 4H918-bN; test: two-hybrid library CCNG1
T11 chain: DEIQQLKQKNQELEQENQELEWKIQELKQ

4H4073-bN = target: T12, 4H4073-bN; test: two-hybrid library CCNG1
T12 chain: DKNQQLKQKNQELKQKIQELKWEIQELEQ

APC4336-AA = target: T13, APC4336-AA; test: two-hybrid library CCmax; conditions: mean of both orientations
T13 chain: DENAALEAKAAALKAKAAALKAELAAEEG

APC7524-AA = target: T14, APC7524-AA; test: two-hybrid library CCmax; conditions: mean of both orientations
T14 chain: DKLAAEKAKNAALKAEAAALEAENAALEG

APC3881-AA = target: T15, APC3881-AA; test: two-hybrid library CCmax
T15 chain: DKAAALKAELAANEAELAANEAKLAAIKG

APC9806-AA = target: T16, APC9806-AA; test: two-hybrid library CCmax; conditions: mean of both orientations
T16 chain: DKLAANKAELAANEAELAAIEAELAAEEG

APC9182-AA = target: T17, APC9182-AA; test: two-hybrid library CCmax; conditions: mean of both orientations
T17 chain: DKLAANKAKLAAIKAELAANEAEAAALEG

APC5531-AA = target: T18, APC5531-AA; test: two-hybrid library CCmax; conditions: mean of both orientations
T18 chain: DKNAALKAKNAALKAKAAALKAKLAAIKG

APC4100-AA = target: T19, APC4100-AA; test: two-hybrid library CCmax; conditions: mean of both orientations
T19 chain: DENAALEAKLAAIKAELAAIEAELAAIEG

APC9291-AA = target: T20, APC9291-AA; test: two-hybrid library CCmax; conditions: mean of both orientations
T20 chain: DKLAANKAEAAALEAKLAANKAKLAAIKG

APC9141-AA = target: T21, APC9141-AA; test: two-hybrid library CCmax; conditions: mean of both orientations
T21 chain: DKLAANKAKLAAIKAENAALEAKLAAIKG

APC5009-AA = target: T22, APC5009-AA; test: two-hybrid library CCmax
T22 chain: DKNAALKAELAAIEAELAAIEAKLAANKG

APC8516-AA = target: T23, APC8516-AA; test: two-hybrid library CCmax; conditions: mean of both orientations
T23 chain: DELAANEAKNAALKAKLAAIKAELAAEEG

APC8401-AA = target: T24, APC8401-AA; test: two-hybrid library CCmax; conditions: mean of both orientations
T24 chain: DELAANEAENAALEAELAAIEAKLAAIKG

APC542-AA = target: T25, APC542-AA; test: two-hybrid library CCmax; conditions: mean of both orientations
T25 chain: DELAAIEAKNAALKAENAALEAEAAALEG

APC6088-AA = target: T26, APC6088-AA; test: two-hybrid library CCmax; conditions: mean of both orientations
T26 chain: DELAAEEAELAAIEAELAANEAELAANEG

4H687-bA = target: T27, 4H687-bA; test: two-hybrid library CCNG1
T27 chain: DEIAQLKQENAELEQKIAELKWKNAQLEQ

4H953-bA = target: T28, 4H953-bA; test: two-hybrid library CCNG1
T28 chain: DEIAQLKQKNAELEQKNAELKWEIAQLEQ

4H967-bA = target: T29, 4H967-bA; test: two-hybrid library CCNG1
T29 chain: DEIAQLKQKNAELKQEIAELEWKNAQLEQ

4H797-bA = target: T30, 4H797-bA; test: two-hybrid library CCNG1
T30 chain: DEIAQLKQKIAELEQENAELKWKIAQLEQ

4H568-bA = target: T31, 4H568-bA; test: two-hybrid library CCNG1
T31 chain: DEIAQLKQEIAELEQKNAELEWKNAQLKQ

4H462-bA = target: T32, 4H462-bA; test: two-hybrid library CCNG1
T32 chain: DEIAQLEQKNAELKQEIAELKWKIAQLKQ

4H607-bA = target: T33, 4H607-bA; test: two-hybrid library CCNG1
T33 chain: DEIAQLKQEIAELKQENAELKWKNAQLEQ

4H72-bA = target: T34, 4H72-bA; test: two-hybrid library CCNG1
T34 chain: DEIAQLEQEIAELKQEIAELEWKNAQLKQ

4H908-bA = target: T35, 4H908-bA; test: two-hybrid library CCNG1
T35 chain: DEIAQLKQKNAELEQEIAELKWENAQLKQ

4H4001-bA = target: T36, 4H4001-bA; test: two-hybrid library CCNG1
T36 chain: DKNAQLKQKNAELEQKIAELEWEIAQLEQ

4H883-bA = target: T37, 4H883-bA; test: two-hybrid library CCNG1
T37 chain: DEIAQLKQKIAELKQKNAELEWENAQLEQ

4H754-bA = target: T38, 4H754-bA; test: two-hybrid library CCNG1
T38 chain: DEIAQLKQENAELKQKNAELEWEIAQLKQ

4H454-bA = target: T39, 4H454-bA; test: two-hybrid library CCNG1
T39 chain: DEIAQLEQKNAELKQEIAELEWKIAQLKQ

4H717-bA = target: T40, 4H717-bA; test: two-hybrid library CCNG1
T40 chain: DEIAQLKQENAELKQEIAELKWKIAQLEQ

4H918-bA = target: T41, 4H918-bA; test: two-hybrid library CCNG1
T41 chain: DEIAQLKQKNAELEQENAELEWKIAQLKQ

Binder: DKAAALKAELAANEAELAANEAKLAAIKG [APC3881-AA]
interaction score (APC4336-AA): -1.5 | interaction score (APC7524-AA): -1.49 | interaction score (APC3881-AA): -1.67 | interaction score (APC9806-AA): -1.72 | interaction score (APC9182-AA): -1.63 | interaction score (APC5531-AA): -1.92 | interaction score (APC4100-AA): -1.25 | interaction score (APC9291-AA): -2.12 | interaction score (APC9141-AA): -1.38 | interaction score (APC5009-AA): -1.15 | interaction score (APC8516-AA): -1.39 | interaction score (APC8401-AA): -1.61 | interaction score (APC542-AA): -1.63 | interaction score (APC6088-AA): -1.78

Binder: DKNAQLKQKNAELEQKIAELEWEIAQLEQ [4H4001-bA]
interaction score (4H687-bA): -1.34 | interaction score (4H953-bA): -1.52 | interaction score (4H967-bA): -1.03 | interaction score (4H797-bA): -1.28 | interaction score (4H568-bA): -1.47 | interaction score (4H462-bA): -0.0948 | interaction score (4H607-bA): -1.34 | interaction score (4H72-bA): -1.27 | interaction score (4H908-bA): -0.992 | interaction score (4H4001-bA): -0.927 | interaction score (4H883-bA): -0.688 | interaction score (4H754-bA): -1.03 | interaction score (4H454-bA): 1.01 | interaction score (4H717-bA): -2.02 | interaction score (4H918-bA): -1.15

Other lines, results leading:

interaction score (O9-bH): -0.295
Binder: DENQELEKKNEELKREIWELEKEIQELER [O9-bH]

interaction score (4H575-bN): -1.72 | interaction score (4H953-bN): -1.56 | interaction score (4H855-bN): -0.729 | interaction score (4H683-bN): -1.31 | interaction score (4H754-bN): -1.18 | interaction score (4H968-bN): -1.13 | interaction score (4H457-bN): -0.816 | interaction score (4H780-bN): -0.882 | interaction score (4H797-bN): -0.921 | interaction score (4H918-bN): -0.772 | interaction score (4H4073-bN): -1.77
Binder: DKNQQLKQKNQELKQKIQELKWEIQELEQ [4H4073-bN]
